Molecular target: fibrous bovine collagen I (bovine) (UniProt P02453)
Sequence of UniProt P02453 (P02453 162-1217, chain 1 of 2): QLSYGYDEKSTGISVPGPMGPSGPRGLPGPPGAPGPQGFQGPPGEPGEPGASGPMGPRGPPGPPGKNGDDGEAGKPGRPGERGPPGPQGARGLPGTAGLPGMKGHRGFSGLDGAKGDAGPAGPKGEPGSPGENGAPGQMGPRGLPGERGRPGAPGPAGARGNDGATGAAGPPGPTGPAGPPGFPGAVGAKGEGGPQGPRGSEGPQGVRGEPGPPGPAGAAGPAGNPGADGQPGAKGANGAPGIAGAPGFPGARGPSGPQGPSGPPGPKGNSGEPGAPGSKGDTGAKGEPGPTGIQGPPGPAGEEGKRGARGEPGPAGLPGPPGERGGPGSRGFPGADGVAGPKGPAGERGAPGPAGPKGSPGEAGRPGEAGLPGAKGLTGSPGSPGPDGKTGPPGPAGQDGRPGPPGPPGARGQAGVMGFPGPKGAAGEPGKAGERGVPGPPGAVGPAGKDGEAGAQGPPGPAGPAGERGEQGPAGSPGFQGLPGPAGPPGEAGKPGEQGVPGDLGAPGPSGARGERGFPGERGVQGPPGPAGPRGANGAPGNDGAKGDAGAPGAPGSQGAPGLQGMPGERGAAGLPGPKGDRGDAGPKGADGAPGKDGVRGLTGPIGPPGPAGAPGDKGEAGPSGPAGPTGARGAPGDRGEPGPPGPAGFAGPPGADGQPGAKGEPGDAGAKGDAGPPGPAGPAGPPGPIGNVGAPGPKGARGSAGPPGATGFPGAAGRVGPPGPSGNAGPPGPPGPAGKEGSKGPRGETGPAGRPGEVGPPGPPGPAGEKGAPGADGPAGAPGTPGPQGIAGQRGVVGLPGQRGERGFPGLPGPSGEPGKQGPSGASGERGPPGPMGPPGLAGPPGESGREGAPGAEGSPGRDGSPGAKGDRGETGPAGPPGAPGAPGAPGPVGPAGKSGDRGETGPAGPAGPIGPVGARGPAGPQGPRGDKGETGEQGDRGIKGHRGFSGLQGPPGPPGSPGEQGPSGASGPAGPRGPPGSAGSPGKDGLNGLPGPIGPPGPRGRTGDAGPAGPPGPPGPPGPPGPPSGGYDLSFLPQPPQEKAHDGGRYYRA
Sequence of UniProt P02453 (P02465 80-1117, chain 2 of 2, further chain): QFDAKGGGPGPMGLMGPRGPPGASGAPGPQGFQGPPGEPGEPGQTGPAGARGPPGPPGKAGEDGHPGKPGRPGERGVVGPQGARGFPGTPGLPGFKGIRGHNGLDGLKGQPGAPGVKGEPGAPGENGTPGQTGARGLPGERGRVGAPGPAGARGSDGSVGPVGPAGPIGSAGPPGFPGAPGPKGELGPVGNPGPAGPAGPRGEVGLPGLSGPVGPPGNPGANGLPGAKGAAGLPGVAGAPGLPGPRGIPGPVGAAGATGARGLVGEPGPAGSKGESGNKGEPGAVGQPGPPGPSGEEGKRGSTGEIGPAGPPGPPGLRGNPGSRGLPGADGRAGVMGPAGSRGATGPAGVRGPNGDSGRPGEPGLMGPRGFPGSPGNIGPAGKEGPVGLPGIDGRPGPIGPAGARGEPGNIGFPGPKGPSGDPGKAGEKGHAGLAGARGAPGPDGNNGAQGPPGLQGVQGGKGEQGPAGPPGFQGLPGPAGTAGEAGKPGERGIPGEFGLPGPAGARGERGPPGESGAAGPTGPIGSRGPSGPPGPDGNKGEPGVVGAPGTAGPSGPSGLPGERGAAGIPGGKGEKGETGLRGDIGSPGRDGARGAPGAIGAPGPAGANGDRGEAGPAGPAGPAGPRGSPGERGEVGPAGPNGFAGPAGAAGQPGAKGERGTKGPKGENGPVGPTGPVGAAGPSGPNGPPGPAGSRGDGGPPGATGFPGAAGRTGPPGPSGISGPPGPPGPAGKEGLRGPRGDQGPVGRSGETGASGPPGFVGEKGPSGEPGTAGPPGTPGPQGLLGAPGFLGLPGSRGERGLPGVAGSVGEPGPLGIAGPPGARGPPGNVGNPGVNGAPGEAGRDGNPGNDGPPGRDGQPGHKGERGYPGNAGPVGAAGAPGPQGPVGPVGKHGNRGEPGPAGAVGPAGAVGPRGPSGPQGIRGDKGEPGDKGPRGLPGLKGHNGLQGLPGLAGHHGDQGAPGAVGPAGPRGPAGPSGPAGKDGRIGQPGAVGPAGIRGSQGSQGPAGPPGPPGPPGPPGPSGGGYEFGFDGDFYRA

reduction of static adhesion of washed human platelets to fibrous collagen I by anti-GPVI scFv in the presence of EDTA, relative to EDTA alone: 40%
reduction of static adhesion of washed human platelets to fibrous collagen I by anti-GPVI scFv in the presence of EDTA, relative to control: 70%
Substance: glycoprotein VI (from UniProt Q9HCN6 21-339) (receptor)

Source: article PMC4855633
